{
  "source": "paper PMC2575792",
  "target": "T1, ICAM-1 fused to monomeric EGFP (mEGFP) or to mRFP1, P05362",
  "T1 chain": "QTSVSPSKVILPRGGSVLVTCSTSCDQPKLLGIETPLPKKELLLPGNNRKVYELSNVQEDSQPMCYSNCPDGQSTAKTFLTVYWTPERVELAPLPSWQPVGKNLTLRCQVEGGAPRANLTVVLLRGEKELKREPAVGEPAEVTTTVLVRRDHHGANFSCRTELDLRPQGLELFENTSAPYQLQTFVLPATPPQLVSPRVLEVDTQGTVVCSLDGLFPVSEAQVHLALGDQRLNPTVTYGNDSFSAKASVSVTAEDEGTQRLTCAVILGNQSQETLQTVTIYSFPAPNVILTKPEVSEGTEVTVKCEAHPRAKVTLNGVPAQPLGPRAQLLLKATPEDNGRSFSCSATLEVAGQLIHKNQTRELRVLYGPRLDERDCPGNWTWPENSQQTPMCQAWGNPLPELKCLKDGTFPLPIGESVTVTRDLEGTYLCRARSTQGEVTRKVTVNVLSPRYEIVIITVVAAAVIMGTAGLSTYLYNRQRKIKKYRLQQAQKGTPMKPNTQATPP",
  "assay": "FRET or BRET",
  "settings": "remark: other sources report otherwise",
  "data": [
    {"binder": "ICAM-1 fused to monomeric EGFP (mEGFP) or to mRFP1, P05362 28-532 (receptor) QTSVSPSKVILPRGGSVLVTCSTSCDQPKLLGIETPLPKKELLLPGNNRKVYELSNVQEDSQPMCYSNCPDGQSTAKTFLTVYWTPERVELAPLPSWQPVGKNLTLRCQVEGGAPRANLTVVLLRGEKELKREPAVGEPAEVTTTVLVRRDHHGANFSCRTELDLRPQGLELFENTSAPYQLQTFVLPATPPQLVSPRVLEVDTQGTVVCSLDGLFPVSEAQVHLALGDQRLNPTVTYGNDSFSAKASVSVTAEDEGTQRLTCAVILGNQSQETLQTVTIYSFPAPNVILTKPEVSEGTEVTVKCEAHPRAKVTLNGVPAQPLGPRAQLLLKATPEDNGRSFSCSATLEVAGQLIHKNQTRELRVLYGPRLDERDCPGNWTWPENSQQTPMCQAWGNPLPELKCLKDGTFPLPIGESVTVTRDLEGTYLCRARSTQGEVTRKVTVNVLSPRYEIVIITVVAAAVIMGTAGLSTYLYNRQRKIKKYRLQQAQKGTPMKPNTQATPP", "values": [
      {"measurement": "FRET efficiency", "result": "14 to 34", "unit": "%"},
      {"measurement": "percent of pixels with positive FRET", "result": 12, "unit": "%"}
    ]}
  ]
}
